The values below come from US20050196797.

In data set [1] the test system is SMGBP1 (SMG Binding Protein 1).
Data set [2] has as its system protein having a molecular weight of 70 kDa (p70).

Sequence of SMGBP1 (SMG Binding Protein 1) (chain, as listed by the source): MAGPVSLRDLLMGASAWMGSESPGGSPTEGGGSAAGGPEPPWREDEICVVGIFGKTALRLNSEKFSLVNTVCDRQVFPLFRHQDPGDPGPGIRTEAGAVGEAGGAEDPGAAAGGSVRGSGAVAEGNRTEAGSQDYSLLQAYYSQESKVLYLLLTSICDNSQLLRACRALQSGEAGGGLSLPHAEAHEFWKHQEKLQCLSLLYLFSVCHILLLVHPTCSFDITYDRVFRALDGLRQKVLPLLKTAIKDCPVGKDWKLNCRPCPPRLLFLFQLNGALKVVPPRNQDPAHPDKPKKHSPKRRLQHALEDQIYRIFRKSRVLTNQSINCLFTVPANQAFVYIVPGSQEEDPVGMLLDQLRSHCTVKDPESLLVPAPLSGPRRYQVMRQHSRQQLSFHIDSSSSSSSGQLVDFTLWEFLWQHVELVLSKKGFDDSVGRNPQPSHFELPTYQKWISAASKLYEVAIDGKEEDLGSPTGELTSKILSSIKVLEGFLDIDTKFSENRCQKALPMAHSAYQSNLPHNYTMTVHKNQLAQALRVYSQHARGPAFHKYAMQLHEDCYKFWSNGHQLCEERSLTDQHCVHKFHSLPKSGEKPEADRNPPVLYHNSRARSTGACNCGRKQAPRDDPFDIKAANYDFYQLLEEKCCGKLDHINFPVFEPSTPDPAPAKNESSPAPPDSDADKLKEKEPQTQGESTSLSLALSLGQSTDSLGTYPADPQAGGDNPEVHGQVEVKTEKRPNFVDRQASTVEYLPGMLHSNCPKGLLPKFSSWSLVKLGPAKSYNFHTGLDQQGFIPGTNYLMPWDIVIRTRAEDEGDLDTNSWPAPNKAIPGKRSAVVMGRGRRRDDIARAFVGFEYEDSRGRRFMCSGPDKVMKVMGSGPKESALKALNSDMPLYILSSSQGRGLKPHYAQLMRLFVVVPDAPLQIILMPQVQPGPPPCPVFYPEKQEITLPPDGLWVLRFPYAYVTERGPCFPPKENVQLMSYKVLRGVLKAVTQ

As to human SMG-1 (hSMG-1), the “phosphorylation in the hSMG-1 immunoprecipitate (32P autoradiography)” value in data set [1] was “a protein having a molecular weight of 130 kDa (p130) and a protein having a molecular weight of 70 kDa (p70), were detected as phosphorylated proteins. The patterns of phosphorylation thereof accorded exactly with those of autophosphorylation of hSMG-1”; in data set [2] it was “a protein having a molecular weight of 130 kDa (p130) and a protein having a molecular weight of 70 kDa (p70), were detected as phosphorylated proteins. The patterns of phosphorylation thereof accorded exactly with those of autophosphorylation of hSMG-1”.
